The target in assay [1] is T1, human GLP-1 receptor (human, UniProt P43220 24-463). The assay is described as follows: cell-based or functional assay.
Assay [2] concerns the target T1, human GLP-1 receptor. The assay is described as follows: SPA displacement of [125I]-GLP-1(7-36)NH2 from BHK membranes with human GLP-1 receptor, low HSA (0.001%). The method, then:
(§1) 50 ul (micro liter) HSA ("high albumin" experiment containing 2% HSA), or buffer ("low albumin" experiment containing 0.001% HSA) was added to Optiplate, and 25 ul of test compounds were added. 5-10 ug membrane protein/sample was added (50 ul) corresponding to 0.1-0.2 mg protein/ml (to be preferably optimised for each membrane preparation). SPA-particles (Wheatgerm agglutinin SPA beads, Perkin Elmer, #RPNQ0001) were added in an amount of 0.5 mg/well (50 ul). […] The plates were sealed with PlateSealer and incubated for 120 minutes at 30° C. while shaking. The plates were centrifuged (1500 rpm, 10 min) and counted in Topcounter.

Assay [3] deals with T1, human GLP-1 receptor. The assay is described as follows: cell-based or functional assay. This is another data set of the same source.
Assay [4] has as its target T1, human GLP-1 receptor. The experiment in a line: SPA displacement of [125I]-GLP-1(7-36)NH2 from BHK membranes with human GLP-1 receptor, high HSA (2.0%).
The target in assay [5] is T1, human GLP-1 receptor. Described as above. The method, then: as §1
The source holds these as a separate data set.

Assay [6] deals with human serum albumin (HSA) (human, UniProt P02768 25-609). The assay is described as follows: cell-based or functional assay.
human serum albumin (HSA), sequence (P02768 25-609 limits assumed): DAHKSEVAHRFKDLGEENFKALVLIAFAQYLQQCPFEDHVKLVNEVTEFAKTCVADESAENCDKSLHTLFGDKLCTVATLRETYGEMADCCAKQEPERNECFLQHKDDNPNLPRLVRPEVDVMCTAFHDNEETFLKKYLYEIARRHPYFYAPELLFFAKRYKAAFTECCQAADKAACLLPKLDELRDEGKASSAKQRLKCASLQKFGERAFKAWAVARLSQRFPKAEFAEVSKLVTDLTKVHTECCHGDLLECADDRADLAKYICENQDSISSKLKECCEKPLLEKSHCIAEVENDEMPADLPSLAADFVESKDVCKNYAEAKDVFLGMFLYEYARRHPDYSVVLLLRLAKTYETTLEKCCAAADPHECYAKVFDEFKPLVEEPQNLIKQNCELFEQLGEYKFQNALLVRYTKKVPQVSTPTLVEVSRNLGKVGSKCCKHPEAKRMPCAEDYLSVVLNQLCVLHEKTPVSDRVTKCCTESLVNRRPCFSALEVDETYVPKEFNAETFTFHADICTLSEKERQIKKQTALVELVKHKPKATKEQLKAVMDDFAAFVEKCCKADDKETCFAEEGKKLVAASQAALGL
The target in assay [7] is T1, human GLP-1 receptor. The assay is described as follows: cell-based or functional assay. The source holds these as a separate data set.

Numbered stars: 1 amine (or outer) side, 2 acyl side, 3 side chain; on linkers, the order of the positions; unused ones are H or OH. Square brackets hold non-standard residues; d marks the D form. Side chains are listed from the residue outwards. Ends that are not written are not given here. * marks the point of attachment. Dodecanoyl(12-OPh(4-COOH)) = O=C(O)c1ccc(OCCCCCCCCCCCC(=O)*)cc1; Undecanoyl(11-OPh(4-COOH)) = O=C(O)c1ccc(OCCCCCCCCCCC(=O)*)cc1; γGlu = O=C(O)[C@H](CCC(=O)[*:2])N[*:1]; εLys = N[C@@H](CCCCN[*:1])C(=O)[*:2]; AEEA = NCCOCCOCC(=O)O; Aib = CC(C)(N)C(=O)O

B1: N^ε26-[(2S)-6-[[(2S)-6-[[(4S)-4-carboxy-4-[11-(4-carboxyphenoxy)undecanoylamino]butanoyl]amino]-2-(dimethylamino)hexanoyl]amino]-2-(dimethylamino)hexanoyl], … (peptide)
peptide: XXEGTFTSDVSSYLEGQAAKEFIAWLVRGRK
modifications: not fully specified; Imp (imidazopropionyl, des-amino histidine) at 7; Aib at 8; Lys 26 and Lys 37 each acylated at the epsilon-amino group with the side chain given in the name (numbering of GLP-1(7-37))
For B1, the “EC50/pM (0% HSA), In vitro potency (CRE luciferase)” value (“EC50/pM (0% HSA), In vitro potency” for short) in the assay with human GLP-1 receptor [1] stood at 7.9 pM.

B2: Comparative compound (WO2011/080103) Example 4 (peptide)
peptide: HXEGTFTSDVSSYLEGQAAKEFIAWLVRGRK
modifications: Aib at 8; 26K and 37K acylated: protracting moiety C14 diacid, linker gGlu-2xOEG (numbering of GLP-1(7-37), His = 7)
notes: X stands for Aib
The molecule B2 came in with a concentration for half-maximal inhibition (IC50) with human GLP-1 receptor [2] of 6.02 nM. Further, in the assay with human GLP-1 receptor [3], the “In vitro potency (Example 44) EC50/pM” value is 366 pM, the “In vitro potency (Example 45) (0% HSA) EC50/pM” value amounted to 46 pM and the “In vitro potency (Example 45) (1% HSA) EC50/pM” value was 92 pM. In the assay with human GLP-1 receptor [4], the half-inhibitory concentration (IC50) is 357 nM.

B3: N^ε26-[(2S)-2-amino-6-[[(2S)-2-[[2-[[(2S)-2-[[(4S)-4-carboxy-4-[12-(4-carboxyphenoxy)dodecanoylamino]butanoyl]amino]-3-hydroxypropanoyl]amino]acetyl]amino]-3-hy … (peptide)
peptide: XXEGTFTSDVSSYLEGQAAKEFIAWLVRGRK
modifications: Imp (imidazopropionyl, des-amino histidine) at 7; Aib at 8; Lys 26 and Lys 37 each acylated at the epsilon-amino group with the side chain given in the name (numbering of GLP-1(7-37))
Consider B3, for which the “EC50/pM (0% HSA), In vitro potency” value in the assay with human GLP-1 receptor [1] is 9.4 pM.

B4: N^ε26-[(2S)-2-amino-6-[[2-[2-[2-[[2-[2-[2-[[(4S)-4-carboxy-4-[11-(4-carboxyphenoxy)undecanoylamino]butanoyl]amino]ethoxy]ethoxy]acetyl]amino]ethoxy]ethoxy]acety … (peptide)
peptide: H[Aib]EGTFTSDVSSYLEEQAAK([εLys-AEEA-AEEA-γGlu-Undecanoyl(11-OPh(4-COOH))])EFIAWLVRGRK([εLys-AEEA-AEEA-γGlu-Undecanoyl(11-OPh(4-COOH))])
As to B4, the values for the half-maximal inhibitory concentration (IC50) in the assay with human GLP-1 receptor [2] and in the assay with human GLP-1 receptor [5] were 0.26 nM and 251 nM, respectively. Further, the “EC50/pM (0% HSA), In vitro potency” value with human GLP-1 receptor [1] was found to be 5.5 pM. The “EC50/pM (1% HSA), In vitro potency (CRE luciferase)” value (“EC50/pM (1% HSA), In vitro potency” for short) with human GLP-1 receptor [1] is 70 pM.

B5: N^ε26-[(2S)-2-amino-6-[[(4S)-4-carboxy-4-[[(4S)-4-carboxy-4-[11-(4-carboxyphenoxy)undecanoylamino]butanoyl]amino]butanoyl]amino]hexanoyl], … (peptide)
peptide: H[Aib]EGTFTSDVSSYLEEQAAK([εLys-γGlu-γGlu-Undecanoyl(11-OPh(4-COOH))])EFIEWLVRGRK([εLys-γGlu-γGlu-Undecanoyl(11-OPh(4-COOH))])
For the molecule B5, the concentration for half-maximal inhibition (IC50) with human GLP-1 receptor [2] was found to be 0.03 nM. The IC50 in the assay with human GLP-1 receptor [5] came out at 641 nM. In addition, in assay [6], the “EC50 (ratio 1% HSA/0% HSA), CRE luciferase” value (“EC50 (ratio 1% HSA/0% HSA)” for short) is 260 ratio. In the assay with human GLP-1 receptor [1], the “EC50/pM (0% HSA), In vitro potency” value came to 1.5 pM and the “EC50/pM (1% HSA), In vitro potency” value turned out to be 391 pM.

B6: N^ε26-[(2S)-2-amino-6-[[(2S)-2-amino-6-[[(4S)-4-carboxy-4-[12-(4-carboxyphenoxy)dodecanoylamino]butanoyl]amino]hexanoyl]amino]hexanoyl], … (peptide)
peptide: HXEGTFTSDVSSYLEGQAAKEFIAWLVQGRK
modifications: Aib at 8; Lys 26 and Lys 37 each acylated at the epsilon-amino group with the side chain given in the name (numbering of GLP-1(7-37), His = 7)
For B6, the IC50 was found to be 0.64 nM in the assay with human GLP-1 receptor [2] and 321 nM with human GLP-1 receptor [5]. For the same molecule, the “EC50/pM, In vitro potency (AlphaScreen)” value with human GLP-1 receptor [7] stood at 116 pM. For the same molecule, the “EC50 (ratio 1% HSA/0% HSA)” value in assay [6] came to 72 ratio. Besides, the “EC50/pM (0% HSA), In vitro potency” value in the assay with human GLP-1 receptor [1] is 8.7 pM. The “EC50/pM (1% HSA), In vitro potency” value in the assay with human GLP-1 receptor [1] was 633 pM.

B7: N^ε26-[(2S)-2-amino-6-[[(2S)-2-amino-6-[[(4S)-4-carboxy-4-[11-(4-carboxyphenoxy)undecanoylamino]butanoyl]amino]hexanoyl]amino]hexanoyl], … (peptide)
peptide: HXEGTFTSDVSSYLEGQAAKEFIAHLVQGRK
modifications: Aib at 8; Lys 26 and Lys 37 each acylated at the epsilon-amino group with the side chain given in the name (numbering of GLP-1(7-37), His = 7)
As for B7, the “EC50/pM (0% HSA), In vitro potency” value with human GLP-1 receptor [1] amounted to 7.2 pM.

B8: N^ε26-[(2S)-2-amino-6-[[(2S)-2-amino-6-[[(4S)-4-carboxy-4-(13-carboxytridecanoylamino)butanoyl]amino]hexanoyl]amino]hexanoyl], … (peptide)
peptide: HXEGTFTSDVSSYLEGQAAKEFIAWLVHGRK
modifications: Aib at 8; Lys 26 and Lys 37 each acylated at the epsilon-amino group with the side chain given in the name (numbering of GLP-1(7-37), His = 7)
In the case of B8, the IC50 in the assay with human GLP-1 receptor [2] stood at 0.93 nM. In the assay with human GLP-1 receptor [7], the “EC50/pM, In vitro potency (AlphaScreen)” value was 48 pM. The molecule further gave an IC50 with human GLP-1 receptor [5] of 71 nM. The “EC50 (ratio 1% HSA/0% HSA)” value in assay [6] was found to be 10.3 ratio. In the assay with human GLP-1 receptor [1], the “EC50/pM (0% HSA), In vitro potency” value was found to be 7.8 pM and the “EC50/pM (1% HSA), In vitro potency” value is 80 pM.

B9: N^ε26-[(2S)-2-amino-6-[[2-[2-[2-[[2-[2-[2-[[(4S)-4-carboxy-4-[12-(4-carboxyphenoxy)dodecanoylamino]butanoyl]amino]ethoxy]ethoxy]acetyl]amino]ethoxy]ethoxy]acety … (peptide)
peptide: H[Aib]EGTFTSDVSSYLEEQAAK([εLys-AEEA-AEEA-γGlu-Dodecanoyl(12-OPh(4-COOH))])EFIAWLVRGRK([εLys-AEEA-AEEA-γGlu-Dodecanoyl(12-OPh(4-COOH))])
As for B9, in the assay with human GLP-1 receptor [7], the “EC50/pM, In vitro potency (AlphaScreen)” value stood at 369 pM. Besides, the IC50 with human GLP-1 receptor [5] is 484 nM. Also, in the assay with human GLP-1 receptor [1], the “EC50/pM (0% HSA), In vitro potency” value is 3.6 pM and the “EC50/pM (1% HSA), In vitro potency” value came to 141 pM.

B10: N^ε26-[(2S)-2-amino-6-[[(2S)-2-amino-6-[[(4S)-4-carboxy-4-[10-(4-carboxyphenoxy)decanoylamino]butanoyl]amino]hexanoyl]amino]hexanoyl], … (peptide)
peptide: HXEGTFTSDVSSYLEGQAAKEFIAHLVQGRK
modifications: Aib at 8; Lys 26 and Lys 37 each acylated at the epsilon-amino group with the side chain given in the name (numbering of GLP-1(7-37), His = 7)
As for B10, the figures for the concentration for half-maximal inhibition (IC50) with human GLP-1 receptor [2] and in the assay with human GLP-1 receptor [4] were 1.57 nM and 27 nM, respectively. For the same molecule, the “In vitro potency (Example 45) (0% HSA) EC50/pM” value in the assay with human GLP-1 receptor [3] turned out to be 11 pM. Also, the “In vitro potency (Example 45) (1% HSA) EC50/pM” value with human GLP-1 receptor [3] amounted to 162 pM. In addition, in the assay with human GLP-1 receptor [1], the “EC50/pM (0% HSA), In vitro potency” value came to 11 pM.

B11: N^ε26-[(2S)-2-amino-6-[[(4S)-4-carboxy-4-[[(4S)-4-carboxy-4-[11-(4-carboxyphenoxy)undecanoylamino]butanoyl]amino]butanoyl]amino]hexanoyl], … (peptide)
peptide: H[Aib]EGTFTSDVSSYLEEQAAK([εLys-γGlu-γGlu-Undecanoyl(11-OPh(4-COOH))])EFIEWLVRGRK([εLys-γGlu-γGlu-Undecanoyl(11-OPh(4-COOH))])E
notes: X stands for Aib
Regarding B11, the figures for the 50% inhibitory concentration (IC50) with human GLP-1 receptor [2] and with human GLP-1 receptor [5] were 0.02 nM and 123 nM, respectively.

The values are drawn from patent US10000542 (Novo Nordisk, dated 2018).
